Tests used:
[1] = Acylase kinetics, hydrolysis of cephalosporin C (7-ACA determined at 415 nm with p-dimethylaminobenzaldehyde); assay type: biochemical; conditions: substrate Cef C; for Km: 0.1 M phosphate buffer pH 8.0, 37° C.; for Vmax (U/mg): 0.1 M phosphate buffer pH 8.0, 37° C. (converted in units at 25° C.); for Inhibition after: substrate concentration after which inhibition is seen
Description: (§1) Kinetics parameters of the mutants and HisVAC acylase were determined measuring the hydrolysis of cephalosporin C or glutaryl 7-ACA in 0.1 M phosphate buffer solution, pH 8.0 at 37° C. (then converted in units at 25° C.). The amount of 7-ACA is determined spectrophotometrically, using a standard curve, measuring the yellow intensity at 415 nm (Schiff base), resulting upon reaction with p-dimethylaminobenzaldehyde, using modified Bulasingham method (Biochem. Biophys. Acta 276, 250, 1972).
(§2) One acylase unit is the amount of enzyme (in solution or immobilized) which, under the assay conditions, produces one micromole of 7-ACA/minute.

[2] = Acylase kinetics, hydrolysis of glutaryl 7-ACA (7-ACA determined at 415 nm with p-dimethylaminobenzaldehyde); assay type: biochemical; conditions: substrate Gl-7-ACA; for Km: 0.1 M phosphate buffer pH 8.0, 37° C.; for Vmax (U/mg): 0.1 M phosphate buffer pH 8.0, 37° C. (converted in units at 25° C.); for Inhibition after: substrate concentration after which inhibition is seen
Description: as §1, §2

| Inhibition after [1] | Inhibition after [2] | Molecule | Km [1] | Vmax (U/mg) [1] | Km [2] | Vmax (U/mg) [2] |
| --- | --- | --- | --- | --- | --- | --- |
| 60 mM | 50 mM | H296F: HisVAC mutant, histidine 296 replaced with Phe (protein) MTMAANTDRAVLQAALPPLSGSLPIPGLSASVRVRRDAWGIPHIKASGEADAYRALGFVHSQDRLFQMELTRRKALGRAAEWLGAEAAEADILVRRLGMEKVCRRDFEALGVEAKDMLRAYVAGVNAFLASGAPLPVEYGLLGAEPEPWEPWHSIAVMRRLGLLMGSVWFKLWRMLALPVVGAANALKLRYDDGGRDLLCIPPGAEADRLEADLATLRPAVDALLKAMGGDASDAAGGGSNNWAVAPGRTATGRPILAGDPHRVFEIPGFYAQHHLACDRFDMIGLTVPGVPGFPFFAHNGKVAYCVTHAFMDIHDLYLEQFAGEGRTARFGNDFEPVAWSRDRIAVRGGADREFDIVETRHGPVIAGDPRDGAALTLRSVQFAETDLSFDCLTRMPGASTVAQLYDATRGWGLIDHNLVAGDVAGSIGHLVRARVPSRPRENGWLPVPGWSGEHEWRGWIPHEAMPRVIDPPGGIIVTANNRVVADDHPDYLCTDCHPPYRAERIMKRLVANPAFAVDDAAAIHADTLSPHVGLLRRRLEALGARDDSAAEGLRQMLVAWDGRMDAASEVASAYNAFRRALTRLVTDRSGLEQAISHPFAAVAPGVSPQGQVWWAVPTLLRDDDAGMLKGWSWDQALSEALSVASQNLTGRSWGEEHRPRFTHPLATQFPAWAGLLNPASRPIGGDGDTVLANGLVPSAGPQATYGALSRYVFDVGNWDNSRWVVFHGASGHPASAHYADQNAPWSDCAMVPMLYSWDRIAAEAVTSQELVPALEHHHHHH | 4.1 mM | 0.05 U/mg | 1.9 mM | 1.7 U/mg |
| 50 mM | – | H417Y: HisVAC mutant, histidine 417 replaced with Tyr (protein) MTMAANTDRAVLQAALPPLSGSLPIPGLSASVRVRRDAWGIPHIKASGEADAYRALGFVHSQDRLFQMELTRRKALGRAAEWLGAEAAEADILVRRLGMEKVCRRDFEALGVEAKDMLRAYVAGVNAFLASGAPLPVEYGLLGAEPEPWEPWHSIAVMRRLGLLMGSVWFKLWRMLALPVVGAANALKLRYDDGGRDLLCIPPGAEADRLEADLATLRPAVDALLKAMGGDASDAAGGGSNNWAVAPGRTATGRPILAGDPHRVFEIPGFYAQHHLACDRFDMIGLTVPGVPGFPHFAHNGKVAYCVTHAFMDIHDLYLEQFAGEGRTARFGNDFEPVAWSRDRIAVRGGADREFDIVETRHGPVIAGDPRDGAALTLRSVQFAETDLSFDCLTRMPGASTVAQLYDATRGWGLIDYNLVAGDVAGSIGHLVRARVPSRPRENGWLPVPGWSGEHEWRGWIPHEAMPRVIDPPGGIIVTANNRVVADDHPDYLCTDCHPPYRAERIMKRLVANPAFAVDDAAAIHADTLSPHVGLLRRRLEALGARDDSAAEGLRQMLVAWDGRMDAASEVASAYNAFRRALTRLVTDRSGLEQAISHPFAAVAPGVSPQGQVWWAVPTLLRDDDAGMLKGWSWDQALSEALSVASQNLTGRSWGEEHRPRFTHPLATQFPAWAGLLNPASRPIGGDGDTVLANGLVPSAGPQATYGALSRYVFDVGNWDNSRWVVFHGASGHPASAHYADQNAPWSDCAMVPMLYSWDRIAAEAVTSQELVPALEHHHHHH | 12.3 mM | 0.05 U/mg | 4.3 mM | 14.8 U/mg |
| 50 mM | 12.5 mM | D416Y-H417Y: HisVAC double mutant, aspartic acid 416 and histidine 417 replaced with Tyr (protein) MTMAANTDRAVLQAALPPLSGSLPIPGLSASVRVRRDAWGIPHIKASGEADAYRALGFVHSQDRLFQMELTRRKALGRAAEWLGAEAAEADILVRRLGMEKVCRRDFEALGVEAKDMLRAYVAGVNAFLASGAPLPVEYGLLGAEPEPWEPWHSIAVMRRLGLLMGSVWFKLWRMLALPVVGAANALKLRYDDGGRDLLCIPPGAEADRLEADLATLRPAVDALLKAMGGDASDAAGGGSNNWAVAPGRTATGRPILAGDPHRVFEIPGFYAQHHLACDRFDMIGLTVPGVPGFPHFAHNGKVAYCVTHAFMDIHDLYLEQFAGEGRTARFGNDFEPVAWSRDRIAVRGGADREFDIVETRHGPVIAGDPRDGAALTLRSVQFAETDLSFDCLTRMPGASTVAQLYDATRGWGLIYYNLVAGDVAGSIGHLVRARVPSRPRENGWLPVPGWSGEHEWRGWIPHEAMPRVIDPPGGIIVTANNRVVADDHPDYLCTDCHPPYRAERIMKRLVANPAFAVDDAAAIHADTLSPHVGLLRRRLEALGARDDSAAEGLRQMLVAWDGRMDAASEVASAYNAFRRALTRLVTDRSGLEQAISHPFAAVAPGVSPQGQVWWAVPTLLRDDDAGMLKGWSWDQALSEALSVASQNLTGRSWGEEHRPRFTHPLATQFPAWAGLLNPASRPIGGDGDTVLANGLVPSAGPQATYGALSRYVFDVGNWDNSRWVVFHGASGHPASAHYADQNAPWSDCAMVPMLYSWDRIAAEAVTSQELVPALEHHHHHH | 13.1 mM | 4.2 U/mg | 9 mM | 1.2 U/mg |
| – | 25 mM | D416Y: HisVAC mutant, aspartic acid 416 replaced with Tyr (protein) MTMAANTDRAVLQAALPPLSGSLPIPGLSASVRVRRDAWGIPHIKASGEADAYRALGFVHSQDRLFQMELTRRKALGRAAEWLGAEAAEADILVRRLGMEKVCRRDFEALGVEAKDMLRAYVAGVNAFLASGAPLPVEYGLLGAEPEPWEPWHSIAVMRRLGLLMGSVWFKLWRMLALPVVGAANALKLRYDDGGRDLLCIPPGAEADRLEADLATLRPAVDALLKAMGGDASDAAGGGSNNWAVAPGRTATGRPILAGDPHRVFEIPGFYAQHHLACDRFDMIGLTVPGVPGFPHFAHNGKVAYCVTHAFMDIHDLYLEQFAGEGRTARFGNDFEPVAWSRDRIAVRGGADREFDIVETRHGPVIAGDPRDGAALTLRSVQFAETDLSFDCLTRMPGASTVAQLYDATRGWGLIYHNLVAGDVAGSIGHLVRARVPSRPRENGWLPVPGWSGEHEWRGWIPHEAMPRVIDPPGGIIVTANNRVVADDHPDYLCTDCHPPYRAERIMKRLVANPAFAVDDAAAIHADTLSPHVGLLRRRLEALGARDDSAAEGLRQMLVAWDGRMDAASEVASAYNAFRRALTRLVTDRSGLEQAISHPFAAVAPGVSPQGQVWWAVPTLLRDDDAGMLKGWSWDQALSEALSVASQNLTGRSWGEEHRPRFTHPLATQFPAWAGLLNPASRPIGGDGDTVLANGLVPSAGPQATYGALSRYVFDVGNWDNSRWVVFHGASGHPASAHYADQNAPWSDCAMVPMLYSWDRIAAEAVTSQELVPALEHHHHHH | 7.2 mM | 0.66 U/mg | 1.75 mM | 4.9 U/mg |

From patent US20050158818A1, “Cephalosporin C acylases” (ANTIBIOTICOS S.p.A., priority 2004, published 2005)
